Measurements: publication PMC9015690

Target: CXCL12 locked dimer (CXCL12-LD) (UniProt P48061)
Test: ITC

CXCL12 locked dimer (CXCL12-LD), sequence (P48061 22-89 L57C/A86C): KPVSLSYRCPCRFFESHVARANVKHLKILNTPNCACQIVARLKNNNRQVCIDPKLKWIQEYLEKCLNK

- KD of the first transition (sequential binding model): 6 nM
- stoichiometry N: 1
B1: ACKR1^N-term, sixty-amino acid peptide corresponding to the extracellular N-terminus of ACKR1 (domain or fragment)
chain: MGNALHRAELSPSTENSSQLDFEDVWNSSYGVNDSFPDGDYGANLEAAAPAHSANLLDDS
